Measured values from patent US20250011363A1, “OPTIMIZED SHORTENED PEPTIDE THAT BINDS TO ACETYLCHOLINE RECEPTOR, AND USE THEREOF” (SKINMED CO., LTD., priority 2021, published 2025).

B1: 5mer-892 (peptide)
peptide: RKPMR
B2: 5mer-880 (peptide)
peptide: RCDKK
B3: 5mer-870 (peptide)
peptide: RCKVK
B4: 5mer-1191 (peptide)
peptide: RMDWK
B5: 5mer-884 (peptide)
peptide: KIWEK
B6: 5mer-1175 (peptide)
peptide: RDMIR
B7: 5mer-881 (peptide)
peptide: RNDAK
B8: 5mer-883 (peptide)
peptide: KMSAK
B9: 5mer-872 (peptide)
peptide: RKKWK
B10: 5mer-866 (peptide)
peptide: RINWR
B11: 5mer-1184 (peptide)
peptide: RDSMK
B12: 5mer-887 (peptide)
peptide: KTPVR
B13: 5mer-1181 (peptide)
peptide: KKAKR
B14: 5mer-889 (peptide)
peptide: KTPGR
B15: 5mer-1190 (peptide)
peptide: RFSEK
B16: 5mer-1182 (peptide)
peptide: REKWK
B17: 5mer-1170 (peptide)
peptide: KHSEK
B18: 5mer-1169 (peptide)
peptide: KDTPK
B19: 5mer-1189 (peptide)
peptide: RKMDK
B20: 5mer-1186 (peptide)
peptide: KMWVK
B21: 5mer-1176 (peptide)
peptide: KIHFK
B22: 5mer-882 (peptide)
peptide: REEGR
B23: 5mer-873 (peptide)
peptide: RYNFR
B24: 5mer-1185 (peptide)
peptide: KPTGR
B25: 5mer-1177 (peptide)
peptide: KIPVR
B26: 5mer-1167 (peptide)
peptide: KESWK
B27: 5mer-886 (peptide)
peptide: RMMFR
B28: 5mer-877 (peptide)
peptide: RFSMR
B29: 5mer-893 (peptide)
peptide: RIKIK
B30: 5mer-1173 (peptide)
peptide: KECKR
B31: 5mer-875 (peptide)
peptide: KHCNK
B32: 5mer-871 (peptide)
peptide: RHSHR
B33: 5mer-1174 (peptide)
peptide: KYSGK
B34: 5mer-1178 (peptide)
peptide: RFDNR
B35: 5mer-1168 (peptide)
peptide: RHHWR
B36: 5mer-878 (peptide)
peptide: KHTER
B37: 5mer-888 (peptide)
peptide: KKCIR
B38: 5mer-1193 (peptide)
peptide: KHWFK
B39: 5mer-868 (peptide)
peptide: KMHFK
B40: 5mer-1192 (peptide)
peptide: RYAKK
B41: 5mer-1180 (peptide)
peptide: KETAK
B42: 5mer-1172 (peptide)
peptide: KIWWR
B43: 5mer-1183 (peptide)
peptide: RHAPK
B44: 5mer-869 (peptide)
peptide: KKHPK
B45: 5mer-867 (peptide)
peptide: KDSWK
B46: 5mer-874 (peptide)
peptide: RIHMR
B47: 5mer-876 (peptide)
peptide: KETAR
B48: 5mer-890 (peptide)
peptide: KKHFK
B49: 5mer-879 (peptide)
peptide: KDCMK
B50: 5mer-891 (peptide)
peptide: RKKMK
B51: 5mer-1188 (peptide)
peptide: KPSGK
B52: 5mer-1179 (peptide)
peptide: RMNVR
B53: 5mer-1166 (peptide)
peptide: KTHEK
B54: 5mer-1187 (peptide)
peptide: KHHIR
B55: 5mer-894 (peptide)
peptide: KMSPR
B56: 5mer-1171 (peptide)
peptide: RCSWK
B57: 5mer-885 (peptide)
peptide: RHCNR

Target: acetylcholine receptor
Assay: SPR, AchR immobilised on CM5 chip, peptide at 10 uM

Binder	Binding affinity (RU)
B1	29
B2	17
B3	25
B4	30
B5	28
B6	30
B7	31
B8	16
B9	29
B10	11
B11	14
B12	30
B13	22
B14	25
B15	32
B16	15
B17	28
B18	29
B19	11

Binder	Binding affinity (RU)
B20	12
B21	25
B22	18
B23	32
B24	30
B25	20
B26	12
B27	21
B28	17
B29	18
B30	30
B31	33
B32	21
B33	25
B34	22
B35	31
B36	24
B37	31
B38	22

Binder	Binding affinity (RU)
B39	18
B40	28
B41	27
B42	25
B43	13
B44	31
B45	14
B46	27
B47	16
B48	33
B49	13
B50	24
B51	30
B52	18
B53	32
B54	27
B55	18
B56	21
B57	19
